Tests used:
[1] = target: human BTLA extracellular domain with C-terminal 10xHis tag (human) (UniProt Q7Z6A9); assay: BLI (Octet RED96), antibody on AHC biosensor, His-tag-huBTLA in solution
[2] = target: human BTLA extracellular domain with C-terminal 10xHis tag (human) (UniProt Q7Z6A9); assay: BLI (Octet RED96), antibody on AHC biosensor, His-tag-huBTLA in solution; column head prints nM, but Koff/Kon shows the values are in M

Sequence of human BTLA extracellular domain with C-terminal 10xHis tag (human) (Q7Z6A9 other isoform, or with tags, fused parts or gaps): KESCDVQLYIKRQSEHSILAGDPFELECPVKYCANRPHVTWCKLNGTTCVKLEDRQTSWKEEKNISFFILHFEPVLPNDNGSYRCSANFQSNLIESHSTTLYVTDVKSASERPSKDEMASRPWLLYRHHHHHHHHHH

- koff [1]: 0.00124 s⁻¹
- kon [1]: 621000 M⁻¹ s⁻¹
- Kd [2]: 2.09 nM
Substance: Icatolimab (antibody)

— patent US20260035464A1
